Bounds are passed on as bounds.

The target in the assay is stomach proteases of BALB/c mice. As to the kind of experiment: cell-based or functional assay.

Regarding “non-lipidated Omp19S polypeptide of Brucella abortus, recombinant from E. coli, with a histidine tai (from UniProt P0A3P1 22-177)”, the inhibitory effect on the action of stomach proteases was > 30%.

Source of the values: US20120258145A1.
